Key:
[1] = target: T1, human TSH receptor (full length), coated on ELISA plate wells (human, UniProt P16473 22-764); test: ELISA, inhibition of M22 Fab-peroxidase (competitor) binding to TSHR coated wells; 0.03 µg/mL in assay buffer; mean ± SD
T1 construct: TSHR coated ELISA plate wells of the TRAb ELISA; also called thyroid stimulating hormone receptor

[2] = target: T1, human TSH receptor (full length), …; test: ELISA, inhibition of M22 Fab-peroxidase (competitor) binding to TSHR coated wells; 0.01 µg/mL in HBD serum; mean ± SD
[3] = target: T1, human TSH receptor (full length), …; test: ELISA, inhibition of M22 Fab-peroxidase (competitor) binding to TSHR coated wells; 0.1 µg/mL in assay buffer; mean ± SD
[4] = target: T1, human TSH receptor (full length), …; test: ELISA, inhibition of M22 Fab-peroxidase (competitor) binding to TSHR coated wells; 0.01 µg/mL in assay buffer; mean ± SD
[5] = target: T1, human TSH receptor (full length), …; test: ELISA, inhibition of M22 Fab-peroxidase (competitor) binding to TSHR coated wells; 0.03 µg/mL in HBD serum; mean ± SD
[6] = target: T1, human TSH receptor (full length), …; test: ELISA, inhibition of M22 Fab-peroxidase (competitor) binding to TSHR coated wells; 1 µg/mL in HBD serum; mean ± SD
[7] = target: T1, human TSH receptor (full length), …; test: ELISA, inhibition of M22 Fab-peroxidase (competitor) binding to TSHR coated wells; 1 µg/mL in assay buffer; mean ± SD
[8] = target: T1, human TSH receptor (full length), …; test: ELISA, inhibition of M22 Fab-peroxidase (competitor) binding to TSHR coated wells; 0.1 µg/mL in HBD serum; mean ± SD
[9] = target: T2, TSHR260-alkaline phosphatase (TSHR260-AP) (human, UniProt P05187 23-511); test: TSHR260-AP bridge ELISA, full length TSHR on wells; 0.1 µg/mL, diluted in HBD
T2 construct: Fusion of human TSHR amino acids 22-260 (construct codes 1-260, 1-21 being the leader) with secreted alkaline phosphatase, expressed in insect cells; In the ELISA the antibody bridges full length detergent-solubilised TSHR coated on the wells and TSHR260-AP in the liquid phase
Method: (§1) An ELISA was established based on the ability of divalent TSHR antibodies to bind with one antigen binding site to TSHR coated onto an ELISA plate well and with the other antigen binding site to TSHR260-AP in a liquid phase i.e. forming a bridge. TSHR in the form of full length detergent-solubilised receptor expressed in CHO cells was coated onto ELISA plate wells via a C-terminal antibody as described previously (Bolton J et al 1999 supra). In the assay 75 μL of start buffer (as described for TRAb ELISA; Bolton J, et al 1999 supra) and 75 μL of test sample (patient sera or monoclonal antibodies) were added to the ELISA plate wells coated with the full length detergent solubilised TSHR and incubated for 2 hours at room temperature with shaking (500 rpm). Then the contents of the wells were removed, the wells washed 3 times with wash buffer (50 mmol/L NaCl, 20 mmol/L Tris pH 7.8, 1% Triton X-100) followed by addition of […] of TSHR260-AP (diluted in wash buffer containing 0.2 g/L MgCl₂-6H₂O and 2 g/L BSA). After incubation for 1 hour at room temperature with shaking (500 rpm) the wells were emptied, washed (3 times) and 100 μL of p-nitrophenyl phosphate (pNpp) substrate (Europa Bioproducts Ltd, Ely, Cambridge UK) added and the plate incubated in the dark for 45 minutes. Thereafter 100 μL of stop solution (1 mol/L NaOH) was added and the absorbance read at 405 nm in an ELISA plate reader. […] In some experiments solubilised preparations of recombinant TSHR containing mutation R255D expressed in CHO cells were used to coat the ELISA plate wells.
(§2) TSHR260-AP is a fusion protein consisting of a fragment of human TSHR (amino acids 22-260) e with alkaline phosphatase. […] Mean absorbance = mean of duplicate determinations.

[10] = target: T2, TSHR260-alkaline phosphatase …; test: TSHR260-AP bridge ELISA, full length TSHR on wells; 10 µg/mL, diluted in HBD
Method: as §1, §2

[11] = target: T2, TSHR260-alkaline phosphatase …; test: TSHR260-AP bridge ELISA, full length TSHR on wells; 0.005 µg/mL, diluted in assay buffer
Method: as §1, §2

[12] = target: T2, TSHR260-alkaline phosphatase …; test: TSHR260-AP bridge ELISA, full length TSHR on wells; 250 µg/mL, diluted in HBD
Method: as §1, §2

[13] = target: T2, TSHR260-alkaline phosphatase …; test: TSHR260-AP bridge ELISA, full length TSHR on wells; 0.005 µg/mL, diluted in HBD
Method: as §1, §2

[14] = target: T2, TSHR260-alkaline phosphatase …; test: TSHR260-AP bridge ELISA, full length TSHR on wells; 10 µg/mL, diluted in assay buffer
Method: as §1, §2

[15] = target: T2, TSHR260-alkaline phosphatase …; test: TSHR260-AP bridge ELISA, full length TSHR on wells; 250 µg/mL, diluted in assay buffer
Method: as §1, §2

[16] = target: T2, TSHR260-alkaline phosphatase …; test: TSHR260-AP bridge ELISA, full length TSHR on wells; 0.1 µg/mL, diluted in assay buffer
Method: as §1, §2

| Binder | Inhibition of binding (%) [1] [%] | Inhibition of binding (%) [2] [%] | Inhibition of binding (%) [3] [%] | Inhibition of binding (%) [4] [%] | Inhibition of binding (%) [5] [%] | Inhibition of binding (%) [6] [%] | Inhibition of binding (%) [7] [%] | Inhibition of binding (%) [8] [%] | Mean absorbance at 405 nm [9] [absorbance at 405 nm] | Mean absorbance at 405 nm [10] [absorbance at 405 nm] | Mean absorbance at 405 nm [11] [absorbance at 405 nm] | Mean absorbance at 405 nm [12] [absorbance at 405 nm] | Mean absorbance at 405 nm [13] [absorbance at 405 nm] | Mean absorbance at 405 nm [14] [absorbance at 405 nm] | Mean absorbance at 405 nm [15] [absorbance at 405 nm] | Mean absorbance at 405 nm [16] [absorbance at 405 nm] |
| --- | --- | --- | --- | --- | --- | --- | --- | --- | --- | --- | --- | --- | --- | --- | --- | --- |
| K1-70 Fab (Fab, V domains shown, also called Fab of K1-70) VH: EVQLVQSGAEVKKPGQSLKISCKASGYSLTDNWIGWVRQKPGKGLEWMGIIYPGDSDTRYSPSFQGQVTISADKSINTAYLQWSSLKASDTAIYYCVGLDWNYNPLRYWGPGTLVTVSS VL: QSVLTQPPSVSAAPGQKVTISCSGSSSDIGSNYVSWYQQFPGTAPKLLIYDNNKRPSAIPDRFSGSKSGTSATLGITGLQTGDEADYYCGTWDSRLGIAVFGGGTQLTVLG | 82 | 27.9 | 94.6 | 57.5 | 58.8 | 96.1 | 97.2 | 86 |  |  |  |  |  |  |  |  |
| K1-18 IgG (antibody, V domains shown, Human IgG1 with kappa light chains, purified from hetero-hybridoma culture supernatant; also called human monoclonal autoantibody to the TSHR with TSH agonist (stimulating) activity) VH: EVQLVQSGAEVKKPGESLKISCKGSGYSFTNYWIGWVRQMPGKGLEWMGIIYPYDSDTRYSPSFEGQVTISADKSIRTAYLHWSSLKASDTAMYYCVRPRDGSYPYDAFDIWGQGTMVTVSS VL: EIVLTQSPGTLSLSPGERATLSCRASQSVSNNYLAWYQQKPGQAPRLLIYGASSRATGIPDRFSGSGSGTDFTLTISRLEPEDFAVYYCQHCGSSLRAFGQGTKVEIKR | 35.7 | -4 | 71.9 | 8.9 | 13.6 | 94.6 | 96.3 | 56.3 |  |  |  |  |  |  |  |  |
| K1-18 Fab (Fab, V domains shown, residue limits as in claim 65) VH: EVQLVQSGAEVKKPGESLKISCKGSGYSFTNYWIGWVRQMPGKGLEWMGIIYPYDSDTRYSPSFEGQVTISADKSIRTAYLHWSSLKASDTAMYYCVRPRDGSYPYDAFDIWGQGTMVTVSS VL: EIVLTQSPGTLSLSPGERATLSCRASQSVSNNYLAWYQQKPGQAPRLLIYGASSRATGIPDRFSGSGSGTDFTLTISRLEPEDFAVYYCQHCGSSLRAFGQGTKVEIKR |  |  |  |  |  |  |  |  | -0.011 | -0.002 | -0.004 | -0.007 | -0.011 | 0.008 | 0.049 | 0.002 |

Continued, values first:

| Inhibition of binding (%) [1] [%] | Inhibition of binding (%) [2] [%] | Inhibition of binding (%) [3] [%] | Inhibition of binding (%) [4] [%] | Inhibition of binding (%) [5] [%] | Inhibition of binding (%) [6] [%] | Inhibition of binding (%) [7] [%] | Inhibition of binding (%) [8] [%] | Mean absorbance at 405 nm [9] [absorbance at 405 nm] | Mean absorbance at 405 nm [10] [absorbance at 405 nm] | Mean absorbance at 405 nm [11] [absorbance at 405 nm] | Mean absorbance at 405 nm [12] [absorbance at 405 nm] | Mean absorbance at 405 nm [13] [absorbance at 405 nm] | Mean absorbance at 405 nm [14] [absorbance at 405 nm] | Mean absorbance at 405 nm [15] [absorbance at 405 nm] | Mean absorbance at 405 nm [16] [absorbance at 405 nm] | Binder |
| --- | --- | --- | --- | --- | --- | --- | --- | --- | --- | --- | --- | --- | --- | --- | --- | --- |
| 71.8 | 9.2 | 93 | 28 | 34.5 | 96.4 | 98.1 | 69.7 |  |  |  |  |  |  |  |  | K1-70 IgG (antibody, V domains shown, Human IgG1 with lambda light chains, purified from hetero-hybridoma culture supernatant) VH: EVQLVQSGAEVKKPGQSLKISCKASGYSLTDNWIGWVRQKPGKGLEWMGIIYPGDSDTRYSPSFQGQVTISADKSINTAYLQWSSLKASDTAIYYCVGLDWNYNPLRYWGPGTLVTVSS VL: QSVLTQPPSVSAAPGQKVTISCSGSSSDIGSNYVSWYQQFPGTAPKLLIYDNNKRPSAIPDRFSGSKSGTSATLGITGLQTGDEADYYCGTWDSRLGIAVFGGGTQLTVLG |
|  |  |  |  |  |  |  |  | 0.44 | 0.738 | 0.085 | 0.817 | 0.045 | 0.885 | 1.13 | 0.713 | K1-70 IgG (antibody, V domains shown, Human IgG1 lambda purified from hetero-hybridoma supernatant) VH: EVQLVQSGAEVKKPGQSLKISCKASGYSLTDNWIGWVRQKPGKGLEWMGIIYPGDSDTRYSPSFQGQVTISADKSINTAYLQWSSLKASDTAIYYCVGLDWNYNPLRYWGPGTLVTVSS VL: QSVLTQPPSVSAAPGQKVTISCSGSSSDIGSNYVSWYQQFPGTAPKLLIYDNNKRPSAIPDRFSGSKSGTSATLGITGLQTGDEADYYCGTWDSRLGIAVFGGGTQLTVLG |
|  |  |  |  |  |  |  |  | -0.01 | 0.018 | -0.004 | 0.02 | -0.01 | 0.033 | 0.056 | 0.007 | K1-70 Fab (Fab, V domains shown, residue limits as in claims 56 and 57) VH: EVQLVQSGAEVKKPGQSLKISCKASGYSLTDNWIGWVRQKPGKGLEWMGIIYPGDSDTRYSPSFQGQVTISADKSINTAYLQWSSLKASDTAIYYCVGLDWNYNPLRYWGPGTLVTVSS VL: QSVLTQPPSVSAAPGQKVTISCSGSSSDIGSNYVSWYQQFPGTAPKLLIYDNNKRPSAIPDRFSGSKSGTSATLGITGLQTGDEADYYCGTWDSRLGIAVFGGGTQLTVLG |
|  |  |  |  |  |  |  |  | 0.292 | 0.66 | 0.136 | 0.722 | 0.013 | 0.8 | 1.2 | 0.545 | K1-18 IgG (antibody, V domains shown, Human IgG1 kappa purified from hetero-hybridoma supernatant) VH: EVQLVQSGAEVKKPGESLKISCKGSGYSFTNYWIGWVRQMPGKGLEWMGIIYPYDSDTRYSPSFEGQVTISADKSIRTAYLHWSSLKASDTAMYYCVRPRDGSYPYDAFDIWGQGTMVTVSS VL: EIVLTQSPGTLSLSPGERATLSCRASQSVSNNYLAWYQQKPGQAPRLLIYGASSRATGIPDRFSGSGSGTDFTLTISRLEPEDFAVYYCQHCGSSLRAFGQGTKVEIKR |
